Data set [1] concerns the target FokI endonuclease wild-type (Flavobacterium okeanokoites, UniProt P14870 P14870:2-579). As to the kind of experiment: filter; with poly(dI-dC), 1 mM EDTA, 50 mM NaCl, 22 C; values only in figure. The settings on record: tags: expressed in E. coli RR1 from pRRSfokIR; label: 32P. As to the method:
(§1) The filter binding assays were performed in duplicate using *Fok*I or mutant enzymes and the four different synthetic substrates, SEQ ID NO:12, SEQ ID NO:13, hemi-methylated oligonucleotide of SEQ ID NO:12 and hemi-methylated oligonucleotide of SEQ ID NO:13. Nine different concentrations for each of the enzymes were made by serial dilutions ([…], 2000, 667, 222, 74.1, 24.7, 8.23, 2.74 and 0.914 nM). The enzymes were mixed with 40 nM of each labelled substrate along with 50 μg/ml p(dI-dC) and 50 μg/ml BSA in 50 μl of buffer A[10 mM Tris. phosphate (pH 8.0), 7 mM 2-mercaptoethanol, 1 mM EDTA, 50 mM NaCl, and 10% (vol/vol) glycerol]. The samples were incubated at 22° C. for 1 hr and then loaded on to nitrocellulose filters. The filters were washed twice with 0.5 ml of buffer A, dried and counted using the scintillation counter.
(§2) Why does the four amino-acid residue insertions enable the mutant enzymes to cleave hemi-methylated DNA and not the larger inserts? The four codon insertions could increase the affinity of the mutants for the hemi-methylated DNA. The binding affinities of wild-type enzyme and both four codon insertion mutants were compared by filter binding assays using the synthetic oligonucleotide substrates (FIGS. 9A, 9B and 9C). The binding affinities were measured in the presence of non-specific DNA, poly dI-dC.

Data set [2] has as its target FokI TAEL (+4) insertion mutant (Flavobacterium okeanokoites, UniProt P14870 P14870:2-579, insertion of TAEL after QLV in linker (linker SEQ 21)). As to the kind of experiment: filter; similar to wild-type. The settings on record: label: 32P. The protocol: as §1, §2

Chain of FokI endonuclease wild-type (P14870 2-579, one chain of several): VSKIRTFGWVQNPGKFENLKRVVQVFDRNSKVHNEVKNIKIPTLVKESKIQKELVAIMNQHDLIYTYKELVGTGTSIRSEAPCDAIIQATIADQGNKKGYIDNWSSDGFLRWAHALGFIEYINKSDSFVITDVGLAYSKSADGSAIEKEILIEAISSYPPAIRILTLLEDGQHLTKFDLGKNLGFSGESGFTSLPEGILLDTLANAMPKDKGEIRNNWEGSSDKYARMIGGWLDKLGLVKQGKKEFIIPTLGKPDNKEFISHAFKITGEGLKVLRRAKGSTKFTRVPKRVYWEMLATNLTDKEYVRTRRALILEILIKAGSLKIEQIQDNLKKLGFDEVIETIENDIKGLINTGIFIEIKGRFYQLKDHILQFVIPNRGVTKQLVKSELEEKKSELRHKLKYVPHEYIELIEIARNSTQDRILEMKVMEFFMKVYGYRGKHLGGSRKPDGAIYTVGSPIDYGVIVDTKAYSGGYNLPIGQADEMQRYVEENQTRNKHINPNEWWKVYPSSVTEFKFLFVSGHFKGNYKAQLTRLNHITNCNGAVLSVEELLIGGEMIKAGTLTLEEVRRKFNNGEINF
Chain of FokI TAEL (+4) insertion mutant (P14870 other isoform, or with tags, fused parts or gaps with the stated changes): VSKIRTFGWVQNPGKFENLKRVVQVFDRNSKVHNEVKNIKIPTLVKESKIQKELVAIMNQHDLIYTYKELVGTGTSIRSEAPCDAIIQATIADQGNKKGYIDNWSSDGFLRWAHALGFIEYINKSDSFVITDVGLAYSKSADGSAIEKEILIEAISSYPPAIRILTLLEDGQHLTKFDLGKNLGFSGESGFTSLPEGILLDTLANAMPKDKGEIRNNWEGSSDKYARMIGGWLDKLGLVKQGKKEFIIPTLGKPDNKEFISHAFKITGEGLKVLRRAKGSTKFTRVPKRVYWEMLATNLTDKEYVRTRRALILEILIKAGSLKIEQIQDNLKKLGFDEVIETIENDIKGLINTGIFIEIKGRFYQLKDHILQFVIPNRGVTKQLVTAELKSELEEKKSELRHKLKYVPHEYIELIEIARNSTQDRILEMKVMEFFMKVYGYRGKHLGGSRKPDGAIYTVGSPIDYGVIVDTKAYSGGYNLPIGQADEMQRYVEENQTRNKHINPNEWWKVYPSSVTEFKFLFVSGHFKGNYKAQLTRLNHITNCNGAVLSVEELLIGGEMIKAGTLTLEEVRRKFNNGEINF

B1: unmethylated FokI substrate (dsDNA)
DNA 1: CTAGAGTCAGAATTCGAAGACTTGCCGGATGATCTGCAGGCCAGCTGTGGCGTCTAAATTGA
DNA 2: AGCTTCAATTTAGACGCCACAGCTGGCCTGCAGATCATCCGGCAAGTCTTCGAATTCTGACT
B1: the binding result in data set [1] and in data set [2] was “binds” in each case.

The values are drawn from patent publication US5487994, “Insertion and deletion mutants of FokI restriction endonuclease” (The Johns Hopkins University).
